Experiments:
[1] = system: HA-E2F-5/DP-1 in cells (Homo sapiens); assay: cell_activity; conditions: U2-OS CAT reporter; E2F-5 plus DP-1
[2] = molecular target: GAD-E2F-5/LexA-DP-1 in yeast (Mus musculus) (UniProt Q61502+Q08639); assay: cell_activity; conditions: yeast lacZ reporter
GAD-E2F-5/LexA-DP-1 in yeast (Mus musculus), sequence (Q61502 whole entry, chain 1 of 2): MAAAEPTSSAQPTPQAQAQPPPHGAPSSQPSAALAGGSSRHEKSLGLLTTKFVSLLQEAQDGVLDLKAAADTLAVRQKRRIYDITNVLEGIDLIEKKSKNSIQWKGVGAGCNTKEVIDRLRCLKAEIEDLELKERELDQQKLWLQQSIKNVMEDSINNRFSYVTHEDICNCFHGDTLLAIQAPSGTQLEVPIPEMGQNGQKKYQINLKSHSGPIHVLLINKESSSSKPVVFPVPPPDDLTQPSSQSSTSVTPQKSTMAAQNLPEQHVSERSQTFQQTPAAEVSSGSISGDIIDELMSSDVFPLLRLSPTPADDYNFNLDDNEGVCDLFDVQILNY
GAD-E2F-5/LexA-DP-1 in yeast (Mus musculus), sequence (Q08639 whole entry, chain 2 of 2): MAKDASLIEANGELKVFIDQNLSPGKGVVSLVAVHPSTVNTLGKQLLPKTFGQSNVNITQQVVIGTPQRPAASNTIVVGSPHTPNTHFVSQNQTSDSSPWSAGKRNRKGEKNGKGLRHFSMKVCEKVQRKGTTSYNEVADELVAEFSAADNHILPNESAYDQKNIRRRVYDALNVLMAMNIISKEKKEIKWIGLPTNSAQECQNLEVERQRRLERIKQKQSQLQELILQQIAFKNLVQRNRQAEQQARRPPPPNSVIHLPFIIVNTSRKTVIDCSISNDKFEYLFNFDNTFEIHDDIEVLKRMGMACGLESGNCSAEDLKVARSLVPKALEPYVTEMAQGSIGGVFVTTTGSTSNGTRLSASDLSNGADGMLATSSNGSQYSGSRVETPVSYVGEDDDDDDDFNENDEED

Substance | activity (fold activation) [1] | activity (fold activation) [2]
E2F4-CAT reporter, four E2F sites | > 100 | 
p4xWT CYC1 reporter, four wild-type E2F sites |  | > 6

Reference: patent publication US20030022260
